Publication PMC5856776 (2018)

B1: rCnm N2 (domain or fragment)
chain: ASGTTGVFYYKTGDMQTDDTNHVRWFLNINNENAYVDSDIRIEDDIQSGQTLDIDSFDITVNGSESYRGQEGINQLAQRYGATISADSASGHISVYIPQGYASLNSFSIMYLTKVDNPDQKTFENNSKAWYKENGKDAVDGKEFNHSVANVNAAGGVDGR
B2: rCnm N1+2 (domain or fragment)
chain: SDVSNNVSSLTVSPTQINDGGKTTVRFEFDEHAQNIKAGDTITVNWQNSGTVRGTGYTKTIKLEVQGKYVGDLVVTQDKAVVTFNDSITGLQNITGWGEFEIEGRNFTDTTTGNTGSFQVTSGGKTSEVTVVKSASGTTGVFYYKTGDMQTDDTNHVRWFLNINNENAYVDSDIRIEDDIQSGQTLDIDSFDITVNGSESYRGQEGINQLAQRYGATISADSASGHISVYIPQGYASLNSFSIMYLTKVDNPDQKTFENNSKAWYKENGKDAVDGKEFNHSVANVNAAGGVDGR
B3: full-length recombinant Cnm (rCnm-FL) (domain or fragment)
chain: ASDVSNNVSSLTVSPTQINDGGKTTVRFEFDEHAQNIKAGDTITVNWQNSGTVRGTGYTKTIKLEVQGKYVGDLVVTQDKAVVTFNDSITGLQNITGWGEFEIEGRNFTDTTTGNTGSFQVTSGGKTSEVTVVKSASGTTGVFYYKTGDMQTDDTNHVRWFLNINNENAYVDSDIRIEDDIQSGQTLDIDSFDITVNGSESYRGQEGINQLAQRYGATISADSASGHISVYIPQGYASLNSFSIMYLTKVDNPDQKTFENNSKAWYKENGKDAVDGKEFNHSVANVNAAGGVDGRTTTTTEKPTTTTEAPTTTEAPTTTEAPTTTETPTTTEAPTTTEAPTTTEAPTTTEAPTTTETPTTTEAPTTTEAPTTTEAPTTTEAPTTTEAPTTTEAPTTTEAPTTTEASSETTKAEEKTTEVKEPEKTTTTAPAGKT

The binders below were run against T1, type I collagen (BD-Biosciences) (UniProt P02454 152-1207; P02466 86-1125) (assay: SPR).
T1 sequence (P02454 152-1207, chain 1 of 2): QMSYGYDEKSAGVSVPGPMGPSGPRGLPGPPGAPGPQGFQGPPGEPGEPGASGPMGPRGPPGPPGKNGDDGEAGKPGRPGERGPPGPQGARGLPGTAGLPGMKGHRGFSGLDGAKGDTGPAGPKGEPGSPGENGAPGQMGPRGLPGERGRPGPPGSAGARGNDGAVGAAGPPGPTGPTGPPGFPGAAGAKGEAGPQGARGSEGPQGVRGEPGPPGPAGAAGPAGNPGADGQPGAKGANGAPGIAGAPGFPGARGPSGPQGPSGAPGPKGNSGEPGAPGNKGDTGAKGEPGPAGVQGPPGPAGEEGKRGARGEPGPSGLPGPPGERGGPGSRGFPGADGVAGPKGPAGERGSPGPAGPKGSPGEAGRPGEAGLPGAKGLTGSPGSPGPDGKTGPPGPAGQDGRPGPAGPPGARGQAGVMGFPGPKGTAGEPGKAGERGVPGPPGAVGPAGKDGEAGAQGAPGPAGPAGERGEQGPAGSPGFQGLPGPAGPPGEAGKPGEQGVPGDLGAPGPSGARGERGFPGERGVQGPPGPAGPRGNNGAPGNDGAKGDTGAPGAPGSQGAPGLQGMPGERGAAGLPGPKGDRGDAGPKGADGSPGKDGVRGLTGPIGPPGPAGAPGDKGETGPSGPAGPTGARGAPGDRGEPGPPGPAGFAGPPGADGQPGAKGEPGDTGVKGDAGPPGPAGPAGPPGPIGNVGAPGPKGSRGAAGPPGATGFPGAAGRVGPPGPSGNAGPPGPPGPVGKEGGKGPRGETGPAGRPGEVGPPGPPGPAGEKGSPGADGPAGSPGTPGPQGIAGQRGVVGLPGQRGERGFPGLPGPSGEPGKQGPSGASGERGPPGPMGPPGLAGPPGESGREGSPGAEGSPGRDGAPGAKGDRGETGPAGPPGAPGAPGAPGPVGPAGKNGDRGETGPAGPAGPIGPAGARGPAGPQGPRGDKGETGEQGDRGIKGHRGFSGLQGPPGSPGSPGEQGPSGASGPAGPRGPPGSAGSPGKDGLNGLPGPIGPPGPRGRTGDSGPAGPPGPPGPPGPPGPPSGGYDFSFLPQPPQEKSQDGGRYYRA
T1 sequence (P02466 86-1125, chain 2 of 2): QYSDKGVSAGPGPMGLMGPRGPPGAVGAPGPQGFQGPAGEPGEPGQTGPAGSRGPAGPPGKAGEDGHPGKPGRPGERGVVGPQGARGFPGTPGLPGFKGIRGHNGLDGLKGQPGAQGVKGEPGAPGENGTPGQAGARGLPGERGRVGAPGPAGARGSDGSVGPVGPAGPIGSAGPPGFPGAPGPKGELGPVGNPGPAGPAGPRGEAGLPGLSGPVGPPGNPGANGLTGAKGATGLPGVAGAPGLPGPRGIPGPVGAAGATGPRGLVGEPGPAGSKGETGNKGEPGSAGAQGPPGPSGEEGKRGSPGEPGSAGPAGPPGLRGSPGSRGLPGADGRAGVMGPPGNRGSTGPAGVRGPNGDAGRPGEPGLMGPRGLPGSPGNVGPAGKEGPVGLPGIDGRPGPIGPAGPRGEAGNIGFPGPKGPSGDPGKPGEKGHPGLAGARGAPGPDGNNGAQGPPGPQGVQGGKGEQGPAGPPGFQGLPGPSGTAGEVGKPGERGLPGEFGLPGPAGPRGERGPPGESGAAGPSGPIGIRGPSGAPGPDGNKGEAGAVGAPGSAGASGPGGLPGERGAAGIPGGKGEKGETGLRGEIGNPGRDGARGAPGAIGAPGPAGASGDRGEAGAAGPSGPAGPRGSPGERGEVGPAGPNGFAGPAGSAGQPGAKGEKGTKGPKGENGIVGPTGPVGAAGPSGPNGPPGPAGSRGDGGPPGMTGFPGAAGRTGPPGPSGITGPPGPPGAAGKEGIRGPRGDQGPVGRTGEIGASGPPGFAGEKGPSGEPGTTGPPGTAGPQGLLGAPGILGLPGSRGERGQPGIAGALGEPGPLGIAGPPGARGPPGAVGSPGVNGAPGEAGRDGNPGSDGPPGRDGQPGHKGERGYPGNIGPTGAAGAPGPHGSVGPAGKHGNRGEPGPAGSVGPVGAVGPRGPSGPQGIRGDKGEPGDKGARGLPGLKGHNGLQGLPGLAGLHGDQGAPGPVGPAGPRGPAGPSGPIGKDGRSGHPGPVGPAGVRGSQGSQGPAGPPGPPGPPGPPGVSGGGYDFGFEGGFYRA
In the case of B1, the koff is reported as 0.000335 s⁻¹. B2 gave a koff of 0.0244 s⁻¹. Work on B3 yielded a koff of 0.00198 s⁻¹.

Target: T1, type I collagen (BD-Biosciences)
Assay: SPR
Remark: another data set of the same source
B1 showed a Kd of 4530 nM. B2 was tested, and the Kd was 817 nM. Binder B3 has a Kd of 289 nM.

Target: T1, type I collagen (BD-Biosciences)
Assay: SPR
Remark: another data set of the same source
With B1 the Ka was 221000 M⁻¹. With B2 the Ka was 1.22e+06 M⁻¹. B3 was tested, and the Ka was 3.46e+06 M⁻¹.
